B1: Azoarcus group I ribozyme (parent)
chain: GUGCCUUGCGCCGGGAAACCACGCAAGGGAUGGUGUCAAAUUCGGCGAAACCUAAGCGCCCGCCCGGGCGUAUGGCAACGCCGAGCCAAGCUUCGGCGCCUGCGCCGAUGAAGGUGUAGAGACUAGACGGCACCCACCUAAGGCAAACGCUAUGGUGAAGGCAUAGUCCAGGGAGUGGCGAAAGUCACACAAACCGG

Variants of: B1
Assay: reverse-splicing fitness (ratio to wild type); higher = more active; in vitro selection; Mg2+ level not given
Outline: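 An in vitro group I ribozyme library with randomized positions was T7-transcribed and gel-purified. In triplicate, 10 pmol RNA in EPPS pH 7.5 was reacted with 50 pmoles of a 30-nt RNA substrate for 1 h at 37 °C across several added MgCl2 levels (1–48 mM), then stopped with EDTA. Products were reverse transcribed from a substrate-complementary primer, PCR-amplified and sequenced (HiSeq 4000). Fitness is a variant's read proportion after selection over that before, normalised to wild type.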

Variant | reverse-splicing fitness
GUGCCUUGCGCCGGGAAACCACGCAAGGGAUGGUGUCAAAUUCGGCGAAACCUAAGCGCCCGCCCGGGCGUAUGGCAACGCUGAGCCAAGCUUCGGCGCCUGCGCCGAUGGAGGUGUAGAGACUAGACGGCACCCACCUAAGGCUAACGAUAUGGUGAAGGCAUAGUCCAGGGAGGGGCGAAAGUCACACAAACCGG | 0.0097
GUGCCUUGCGCCGGGAAACCACGCAAGGGAUGGUGUCAAAUUCGGCGAAACCUAAGCGCCCGCCCGGGCGUAUGGCAACGCUGAGCCAAGCUUCGGCGCCUGCGCCGAUGGAGGUGUAGAGACUAGACGGCACCCACCUAAGGCUAACGAUAUGGUGAAGGCAUAGUCCAGGGAGCGGCGAAAGUCACACAAACCGG | 0.0305
GUGCCUUGCGCCGGGAAACCACGCAAGGGAUGGUGUCAAAUUCGGCGAAACCUAAGCGCCCGCCCGGGCGUAUGGCAACGCUGAGCCAAGCUUCGGCGCCUGCGCCGAUGGAGGUGUAGAGACUAGACGGCACCCACCUAAGGCUAACGAUAUGGUGAAGGCAUAGUCCAGGGAGAGGCGAAAGUCACACAAACCGG | 0.0234
GUGCCUUGCGCCGGGAAACCACGCAAGGGAUGGUGUCAAAUUCGGCGAAACCUAAGCGCCCGCCCGGGCGUAUGGCAACGCUGAGCCAAGCUUCGGCGCCUGCGCCGAUGGAGGUGUAGAGACUAGACGGCACCCACCUAAGGCUAACGAUAUGGUGAAGGCAUAGUCUAGGGAGCGGCGAAAGUCACACAAACCGG | 0.012
GUGCCUUGCGCCGGGAAACCACGCAAGGGAUGGUGUCAAAUUCGGCGAAACCUAAGCGCCCGCCCGGGCGUAUGGCAACGCUGAGCCAAGCUUCGGCGCCUGCGCCGAUGGAGGUGUAGAGACUAGACGGCACCCACCUAAGGCUAACGAUAUGGUGAAGGCAUAGUCUAGGGAGGGGCGAAAGUCACACAAACCGG | 0.00567
GUGCCUUGCGCCGGGAAACCACGCAAGGGAUGGUGUCAAAUUCGGCGAAACCUAAGCGCCCGCCCGGGCGUAUGGCAACGCUGAGCCAAGCUUCGGCGCCUGCGCCGAUGGAGGUGUAGAGACUAGACGGCACCCACCUAAGGCUAACGAUAUGGUGAAGGCAUAGUCUAGGGAGAGGCGAAAGUCACACAAACCGG | 0.013
GUGCCUUGCGCCGGGAAACCACGCAAGGGAUGGUGUCAAAUUCGGCGAAACCUAAGCGCCCGCCCGGGCGUAUGGCAACGCUGAGCCAAGCUUCGGCGCCUGCGCCGAUGGAGGUGUAGAGACUAGACGGCACCCACCUAAGGCUAACGAUAUGGUGAAGGCAUAGUCGAGGGAGCGGCGAAAGUCACACAAACCGG | 0.0113
GUGCCUUGCGCCGGGAAACCACGCAAGGGAUGGUGUCAAAUUCGGCGAAACCUAAGCGCCCGCCCGGGCGUAUGGCAACGCUGAGCCAAGCUUCGGCGCCUGCGCCGAUGGAGGUGUAGAGACUAGACGGCACCCACCUAAGGCUAACGAUAUGGUGAAGGCAUAGUCGAGGGAGAGGCGAAAGUCACACAAACCGG | 0.0131
GUGCCUUGCGCCGGGAAACCACGCAAGGGAUGGUGUCAAAUUCGGCGAAACCUAAGCGCCCGCCCGGGCGUAUGGCAACGCUGAGCCAAGCUUCGGCGCCUGCGCCGAUGGAGGUGUAGAGACUAGACGGCACCCACCUAAGGCUAACGAUAUGGUGAAGGCAUAGUCGAGGGAGGGGCGAAAGUCACACAAACCGG | 0.00518
GUGCCUUGCGCCGGGAAACCACGCAAGGGAUGGUGUCAAAUUCGGCGAAACCUAAGCGCCCGCCCGGGCGUAUGGCAACGCUGAGCCAAGCUUCGGCGCCUGCGCCGAUGGAGGUGUAGAGACUAGACGGCACCCACCUAAGGCUAACGAUAUGGUGAAGGCAUAGUCGAGGGAGUGGCGAAAGUCACACAAACCGG | 0.00745
GUGCCUUGCGCCGGGAAACCACGCAAGGGAUGGUGUCAAAUUCGGCGAAACCUAAGCGCCCGCCCGGGCGUAUGGCAACGCUGAGCCAAGCUUCGGCGCCUGCGCCGAUGGAGGUGUAGAGACUAGACGGCACCCACCUAAGGCUAACGAUAUGGUGAAGGCAUAGUCUAGGGAGUGGCGAAAGUCACACAAACCGG | 0.0083
GUGCCUUGCGCCGGGAAACCACGCAAGGGAUGGUGUCAAAUUCGGCGAAACCUAAGCGCCCGCCCGGGCGUAUGGCAACGCUGAGCCAAGCUUCGGCGCCUGCGCCGAUGGAGGUGUAGAGACUAGACGGCACCCACCUAAGGCUAACGGUAUGGUGAAGGCAUAGUCCAGGGAGUGGCGAAAGUCACACAAACCGG | 0.0379
GUGCCUUGCGCCGGGAAACCACGCAAGGGAUGGUGUCAAAUUCGGCGAAACCUAAGCGCCCGCCCGGGCGUAUGGCAACGCUGAGCCAAGCUUCGGCGCCUGCGCCGAUGGAGGUGUAGAGACUAGACGGCACCCACCUAAGGCUAACGAUAUGGUGAAGGCAUAGUCAAGGGAGAGGCGAAAGUCACACAAACCGG | 0.0129
GUGCCUUGCGCCGGGAAACCACGCAAGGGAUGGUGUCAAAUUCGGCGAAACCUAAGCGCCCGCCCGGGCGUAUGGCAACGCUGAGCCAAGCUUCGGCGCCUGCGCCGAUGGAGGUGUAGAGACUAGACGGCACCCACCUAAGGCUAACGAUAUGGUGAAGGCAUAGUCAAGGGAGGGGCGAAAGUCACACAAACCGG | 0.00532
GUGCCUUGCGCCGGGAAACCACGCAAGGGAUGGUGUCAAAUUCGGCGAAACCUAAGCGCCCGCCCGGGCGUAUGGCAACGCUGAGCCAAGCUUCGGCGCCUGCGCCGAUGGAGGUGUAGAGACUAGACGGCACCCACCUAAGGCUAACGAUAUGGUGAAGGCAUAGUCAAGGGAGCGGCGAAAGUCACACAAACCGG | 0.00854

Source: the RNAGym collection of RNA variant scans (doi:10.1093/molbev/msab373)
